Key:
[1] = target: T1, biotinylated human 4-1BB (bio.h4-1BB) (human, UniProt Q07011 24-186, limits assumed, biotinylated (site not stated)); test: SPR (ProteOn XPR36), bio.h4-1BB on NLC chip, MpA analyte; mean of triplicate; apparent affinity (bivalent)
T1 construct: also called CD137
Description: (§1) ProteOn setup for MpA binding to 4-1BB of different species: SPR measurements were performed using a ProteOn XPR36 instrument (BioRad). The running buffer was PBS pH 7.4 containing 0.005% Tween 20® (PBST). The bio.h4-1BB, bio.c4-1BB and bio.m4-1BB were immobilized on NLC chips (BioRad) to a level of 320 RU. The binding of MpA to 4-1BB was measured by injecting MpA in a serial dilution of 30, 10, 3.3, 1.1 and 0.3 nM with an association of 180 s and dissociation of 1800 s using a constant flow of 100 μl/min (see Table 3). The measurement was repeated three times and the targets were regenerated between the individual measurements using 10 mM glycine pH 2 and 124 mM H₃PO₄. The signals were double referenced against the running buffer (PBST) treated control lane of L1 and A6. h4-1BB, c-4-1BB, and m4-1BB refer to human, cynomolgus, and mouse orthologs of 4-1BB, respectively.

[2] = target: T2, human fibroblast activation protein (hFAP) (human, UniProt Q12884 26-760, limits assumed); test: SPR (ProteOn XPR36), hFAP on GLC chip, MpA analyte, 1:1 Langmuir fit; mean of duplicate
T2 construct: Recombinant soluble protein; also called human FAP; rhFAP
Description: (§2) ProteOn setup for MpA binding to FAP of different species: SPR measurements were performed using a ProteOn XPR36 instrument (BioRad). The running buffer was PBS pH 7.4 containing 0.005% Tween 200 (PBST). hFAP (human FAP), cFAP (cynomolgus FAP) and mFAP (mouse FAP) were immobilized on a GLC chip (BioRad) at pH 5.3 to a level of 2000 RU, 1700 RU and 5000 RU, respectively. The interaction of FAP and MpA was measured by applying the MpA molecule as titration (see Table 2).
Two independent measurements were conducted to detect the binding of MpA to hFAP. The targets were regenerated using 10 mM glycine pH 2 and 124 mM H₃PO₄. The signals were double referenced against the PBST treated control lane of L1 and A6. The 1:1 Langmuir model was used for the fitting.

[3] = target: T1, biotinylated human 4-1BB (bio.h4-1BB); test: SPR (ProteOn XPR36), bio.h4-1BB on NLC chip, MpA analyte; mean of triplicate
Description: as §1

[4] = target: T3, biotinylated mouse 4-1BB (bio.m4-1BB) (mouse, UniProt P20334 24-187, limits assumed, biotinylated (site not stated)); test: SPR (ProteOn XPR36), bio.m4-1BB on NLC chip, MpA as analyte
T3 sequence (looked up): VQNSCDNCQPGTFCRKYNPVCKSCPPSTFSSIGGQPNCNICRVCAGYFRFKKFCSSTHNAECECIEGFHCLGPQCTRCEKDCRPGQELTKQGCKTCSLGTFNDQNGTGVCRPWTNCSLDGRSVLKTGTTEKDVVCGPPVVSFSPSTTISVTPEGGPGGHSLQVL
Description: as §1

[5] = target: human 4-1BB on transfected HT1080 NF-kB-luciferase reporter cells (human, UniProt Q07011 24-255); test: cell-based or functional assay
Chain of human 4-1BB on transfected HT1080 NF-kB-luciferase reporter cells (Q07011 24-255 limits assumed): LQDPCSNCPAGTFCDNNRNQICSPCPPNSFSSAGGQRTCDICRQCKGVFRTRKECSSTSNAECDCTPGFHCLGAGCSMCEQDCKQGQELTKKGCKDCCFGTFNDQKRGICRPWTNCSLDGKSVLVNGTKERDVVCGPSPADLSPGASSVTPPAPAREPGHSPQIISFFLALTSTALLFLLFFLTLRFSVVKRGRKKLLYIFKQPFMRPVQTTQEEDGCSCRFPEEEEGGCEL

[6] = target: mouse serum albumin (MSA) (mouse, UniProt P07724 25-608); test: SPR (ProteOn XPR36), MpA captured on bio.h4-1BB, MSA analyte, 1:1 Langmuir fit
Chain of mouse serum albumin (MSA) (P07724 25-608 limits assumed): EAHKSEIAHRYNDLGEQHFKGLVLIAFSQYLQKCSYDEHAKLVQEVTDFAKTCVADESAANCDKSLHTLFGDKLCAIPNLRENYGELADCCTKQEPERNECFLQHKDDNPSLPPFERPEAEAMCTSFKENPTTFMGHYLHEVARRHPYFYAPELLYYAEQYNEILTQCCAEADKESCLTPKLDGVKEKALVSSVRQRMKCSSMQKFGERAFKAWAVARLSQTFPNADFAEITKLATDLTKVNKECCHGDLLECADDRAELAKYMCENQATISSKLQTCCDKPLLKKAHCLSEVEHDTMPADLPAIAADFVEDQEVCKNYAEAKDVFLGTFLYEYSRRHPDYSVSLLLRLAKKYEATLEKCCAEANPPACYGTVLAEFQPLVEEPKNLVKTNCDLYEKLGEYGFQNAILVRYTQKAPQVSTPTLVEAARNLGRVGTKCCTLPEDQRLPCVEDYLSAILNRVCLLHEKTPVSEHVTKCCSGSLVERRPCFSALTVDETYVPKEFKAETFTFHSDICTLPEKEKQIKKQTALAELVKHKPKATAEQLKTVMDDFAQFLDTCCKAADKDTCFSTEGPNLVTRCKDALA
Description: (§3) ProteOn setup for MpA binding to serum albumin of different species: SPR measurements were performed using a ProteOn XPR36 instrument (BioRad). The running buffer was PBS pH 7.4 containing 0.005% Tween 20® (PBST). First, bio.h4-1BB was coated on NLC chip (BioRad) to a level of 320 RU before […] MpA was immobilized for 180 s at constant flow of 30 μl/min to a level of 200 RU. The binding of the serum albumin to MpA was detected by applying HSA (human serum albumin), CSA (cynomolgus serum albumin) and MSA (mouse serum albumin) as titration with a 180 s association and 1800 s dissociation phase using a constant flow of 100 μl/min. HSA, CSA and MSA binding was measured serially and the bio.h4-1BB/MpA complex was regenerated each time with 10 mM glycine pH 2 and 124 mM H3P04. Thus, MpA had to be recoated after each regeneration step. The signals were double referenced against the running buffer (PBST) treated control lane of L1 and A6. The 1:1 Langmuir model was used for the fitting.

mouse FAP (mFAP) = mouse FAP (mFAP) (mouse, UniProt P97321 26-761, limits assumed); test: SPR (ProteOn XPR36), mFAP on GLC chip, MpA as analyte
Chain of mouse FAP (mFAP) (P97321 26-761 limits assumed): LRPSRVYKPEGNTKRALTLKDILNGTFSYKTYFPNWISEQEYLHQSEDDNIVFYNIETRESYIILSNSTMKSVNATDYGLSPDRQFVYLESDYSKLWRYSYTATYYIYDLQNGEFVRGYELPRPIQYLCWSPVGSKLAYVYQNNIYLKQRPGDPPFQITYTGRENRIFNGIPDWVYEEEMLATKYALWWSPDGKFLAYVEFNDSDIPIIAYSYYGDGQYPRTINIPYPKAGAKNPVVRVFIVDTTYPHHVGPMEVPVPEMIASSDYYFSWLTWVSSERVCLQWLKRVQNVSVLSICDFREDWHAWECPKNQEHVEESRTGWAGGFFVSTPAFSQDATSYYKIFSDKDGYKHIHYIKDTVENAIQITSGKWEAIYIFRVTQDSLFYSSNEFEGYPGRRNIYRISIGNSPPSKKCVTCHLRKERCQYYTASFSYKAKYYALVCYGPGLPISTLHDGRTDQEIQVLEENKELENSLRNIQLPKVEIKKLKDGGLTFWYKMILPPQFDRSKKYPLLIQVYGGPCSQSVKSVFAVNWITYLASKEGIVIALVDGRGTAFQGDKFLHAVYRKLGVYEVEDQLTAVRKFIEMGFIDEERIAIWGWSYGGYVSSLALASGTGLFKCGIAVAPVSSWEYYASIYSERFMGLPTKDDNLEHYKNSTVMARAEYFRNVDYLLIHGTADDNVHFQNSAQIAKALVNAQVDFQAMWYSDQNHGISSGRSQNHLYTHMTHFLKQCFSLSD
Description: as §2

[7] = target: cynomolgus serum albumin (CSA) (cynomolgus monkey, UniProt A2V9Z4 25-608); test: SPR (ProteOn XPR36), MpA captured on bio.h4-1BB, CSA analyte, 1:1 Langmuir fit
Chain of cynomolgus serum albumin (CSA) (A2V9Z4 25-608 limits assumed): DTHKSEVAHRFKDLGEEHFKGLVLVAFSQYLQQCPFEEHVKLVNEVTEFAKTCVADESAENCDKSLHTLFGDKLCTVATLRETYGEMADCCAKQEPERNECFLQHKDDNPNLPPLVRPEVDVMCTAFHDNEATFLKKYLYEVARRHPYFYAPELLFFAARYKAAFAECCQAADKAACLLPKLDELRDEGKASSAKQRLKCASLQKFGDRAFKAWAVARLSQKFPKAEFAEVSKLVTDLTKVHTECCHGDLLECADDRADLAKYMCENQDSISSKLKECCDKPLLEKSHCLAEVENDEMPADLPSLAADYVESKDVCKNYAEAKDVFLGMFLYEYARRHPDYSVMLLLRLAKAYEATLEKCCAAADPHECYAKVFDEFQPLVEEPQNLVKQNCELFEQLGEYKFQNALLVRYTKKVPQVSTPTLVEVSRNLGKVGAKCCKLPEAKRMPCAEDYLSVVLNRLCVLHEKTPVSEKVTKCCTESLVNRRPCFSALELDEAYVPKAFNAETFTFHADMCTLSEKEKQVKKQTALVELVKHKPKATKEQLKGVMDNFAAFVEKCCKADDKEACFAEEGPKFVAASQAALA
Description: as §3

[8] = target: human serum albumin (HSA) (human, UniProt P02768 25-609); test: SPR (ProteOn XPR36), MpA captured on bio.h4-1BB, HSA analyte, 1:1 Langmuir fit
Description: as §3

[9] = target: T4, human 4-1BB on primary human CD8 T cells (human, UniProt Q07011 24-255); test: cell-based or functional assay
T4 sequence (Q07011 24-255 limits assumed): as the sequence (Q07011 24-255 limits assumed) above

cynomolgus FAP (cFAP) = target: T5, cynomolgus FAP (cFAP) (cynomolgus monkey); test: SPR (ProteOn XPR36), cFAP on GLC chip, MpA analyte, 1:1 Langmuir fit
T5 chain: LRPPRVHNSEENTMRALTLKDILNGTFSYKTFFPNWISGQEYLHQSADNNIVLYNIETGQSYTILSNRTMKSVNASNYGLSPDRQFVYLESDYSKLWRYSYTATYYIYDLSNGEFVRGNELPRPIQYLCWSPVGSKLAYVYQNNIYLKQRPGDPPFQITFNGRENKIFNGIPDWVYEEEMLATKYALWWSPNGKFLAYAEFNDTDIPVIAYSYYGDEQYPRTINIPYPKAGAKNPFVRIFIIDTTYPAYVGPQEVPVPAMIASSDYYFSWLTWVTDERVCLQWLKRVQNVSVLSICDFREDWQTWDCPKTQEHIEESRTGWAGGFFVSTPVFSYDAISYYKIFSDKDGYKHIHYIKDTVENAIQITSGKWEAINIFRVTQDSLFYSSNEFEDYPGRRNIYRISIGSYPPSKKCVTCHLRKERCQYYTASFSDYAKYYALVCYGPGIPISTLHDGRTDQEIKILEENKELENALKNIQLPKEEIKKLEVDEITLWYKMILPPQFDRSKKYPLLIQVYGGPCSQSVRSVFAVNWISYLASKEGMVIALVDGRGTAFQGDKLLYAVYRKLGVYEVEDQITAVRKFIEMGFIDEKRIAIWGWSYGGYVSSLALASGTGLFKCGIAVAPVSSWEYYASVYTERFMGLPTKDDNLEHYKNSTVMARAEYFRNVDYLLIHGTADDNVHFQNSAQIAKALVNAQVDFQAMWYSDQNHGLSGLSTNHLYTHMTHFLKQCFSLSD
Description: as §2

[10] = target: T4, human 4-1BB on primary human CD8 T cells; test: cell-based or functional assay; remark: listed apart in the source
[11] = target: T1, biotinylated human 4-1BB (bio.h4-1BB); test: SPR (ProteOn XPR36), biotinylated human 4-1BB immobilised, construct as analyte
[12] = target: T2, human fibroblast activation protein …; test: SPR (ProteOn XPR36), hFAP immobilised on GLC chip, construct as analyte
Description: Assay set-up: Briefly, SPR measurements were performed using a ProteOn XPR36 instrument (BioRad) as described above. Biotinylated human and cynomolgus 4-1BB and human FAP were immobilized either directly or indirectly via NeutrAvidin (˜6000 RU pre-coated) on a GLC chip to reach 600 RU, 700 RU and 2000 RU, respectively. The interaction of FAP-4-1BB bispecific constructs to the coated targets was measured by injecting the bispecific constructs in a serial dilution of 50, 16.7, 5.6, 1.9 and 0.6 nM with an association of 120 s and dissociation of 1800 s using a constant flow rate of 30 μl/min. Targets were regenerated between the individual measurements using 10 mM glycine pH 2 and 124 mM H₃PO₄. The signals were double referenced against the running buffer (PBST) treated control lane.
Target sequence in this assay (Q12884 26-760 limits assumed): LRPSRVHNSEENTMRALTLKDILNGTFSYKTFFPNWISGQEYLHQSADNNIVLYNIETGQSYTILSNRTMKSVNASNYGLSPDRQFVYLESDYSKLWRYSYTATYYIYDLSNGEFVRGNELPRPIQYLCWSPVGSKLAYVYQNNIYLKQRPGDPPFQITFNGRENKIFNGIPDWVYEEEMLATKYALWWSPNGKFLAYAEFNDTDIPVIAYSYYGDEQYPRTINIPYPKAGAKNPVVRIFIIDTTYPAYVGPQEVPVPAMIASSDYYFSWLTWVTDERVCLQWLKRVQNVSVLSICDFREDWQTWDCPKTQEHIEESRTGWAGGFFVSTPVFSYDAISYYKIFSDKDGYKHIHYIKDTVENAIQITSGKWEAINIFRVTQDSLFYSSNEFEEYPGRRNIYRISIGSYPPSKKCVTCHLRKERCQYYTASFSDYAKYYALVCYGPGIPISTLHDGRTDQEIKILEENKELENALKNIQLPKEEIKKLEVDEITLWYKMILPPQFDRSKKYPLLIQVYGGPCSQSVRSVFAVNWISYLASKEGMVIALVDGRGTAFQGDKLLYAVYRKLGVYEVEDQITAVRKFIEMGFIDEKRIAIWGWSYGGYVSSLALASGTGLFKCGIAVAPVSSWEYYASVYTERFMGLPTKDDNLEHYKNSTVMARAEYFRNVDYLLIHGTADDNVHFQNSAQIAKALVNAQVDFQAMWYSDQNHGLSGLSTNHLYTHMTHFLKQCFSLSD

T1 sequence (Q07011 24-186 limits assumed): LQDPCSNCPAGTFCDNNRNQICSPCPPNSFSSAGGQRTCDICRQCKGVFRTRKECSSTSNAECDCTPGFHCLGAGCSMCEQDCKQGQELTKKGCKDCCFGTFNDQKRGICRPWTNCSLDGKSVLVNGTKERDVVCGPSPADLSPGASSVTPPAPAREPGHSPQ

B1: Multispecific binding protein A (MpA) (designed binder)
chain: GSDLGKKLLEAARAGQDDEVRELLKAGADVNAKDYFSHTPLHLAARNGHLKIVEVLLKAGADVNAKDFAGKTPLHLAAADGHLEIVEVLLKAGADVNAQDIFGKTPADIAADAGHEDIAEVLQKAAGSPTPTPTTPTPTPTTPTPTPTGSDLGKKLLEAARAGQDDEVRELLKAGADVNAKDVLGWTPLHLAAFEGHLEIVEVLLKAGADVNAKDKKGWTPLQLAARTGHLEIVEVLLKAGADVNAKDHIGATPLHLAAWQGHPEIVEVLLKAGADVNAQDKSGKTPADLAADAGHEDIAEVLQKAAGSPTPTPTTPTPTPTTPTPTPTGSDLGQKLLKAAQEGQDDEVRELLKAGADVNAKDLRGITPLHVAAWQGHLEIVEVLLKAGADVNAKDSKGETPLHLAAFRGHLEIVEVLLKAGADVNAQDQQGETPADLAALAGHVDIAEVLQKAAGSPTPTPTTPTPTPTTPTPTPTGSDLGQKLLKAAQEGQDDEVRELLKAGADVNAKDLRGITPLHVAAWQGHLEIVEVLLKAGADVNAKDSKGETPLHLAAFRGHLEIVEVLLKAGADVNAQDQQGETPADLAALAGHVDIAEVLQKAAGSPTPTPTTPTPTPTTPTPTPTGSDLGKKLLEAARAGQDDEVRELLKAGADVNAKDYFSHTPLHLAARNGHLKIVEVLLKAGADVNAKDFAGKTPLHLAAADGHLEIVEVLLKAGADVNAQDIFGKTPADIAADAGHEDIAEVLQKAA
notes: also called HFBBH
[1]
  Kd: 0.013 nM
[2]
  Kd: 0.4 nM
  koff: 0.00013 s⁻¹
  kon: 470000 M⁻¹ s⁻¹
[3]
  koff: 3.2e-05 s⁻¹
  kon: 2.6e+06 M⁻¹ s⁻¹
[4]
  binding result: no binding (tested: 30 nM highest concentration injected)
[5]
  EC50, NF-κB-luciferase reporter in h4-1BB-HT1080 cells with CHO-hFAP cells: 0.41 nM
[6]
  Kd: 38 nM
  koff: 0.038 s⁻¹
  kon: 1e+06 M⁻¹ s⁻¹
Mouse FAP (mFAP)
  binding result: no binding (tested: 50 nM highest concentration injected)
[7]
  Kd: 67 nM
  koff: 0.075 s⁻¹
  kon: 1.1e+06 M⁻¹ s⁻¹
[8]
  Kd: 8 nM
  koff: 0.012 s⁻¹
  kon: 1.5e+06 M⁻¹ s⁻¹
[9]
  EC50, IFNγ secretion of human CD8 T cells (plate-coated hFAP): 1 to 2 nM
Cynomolgus FAP (cFAP)
  Kd: 0.8 nM
  koff: 0.00013 s⁻¹
  kon: 170000 M⁻¹ s⁻¹
[10]
  EC50, IFNγ production by primary human CD8 T cells (anti-CD3 plus plate-coated hFAP): 1.17 nM

B2: bispecific construct #50 (designed binder)
chain: MRGSHHHHHHGSDLGEKLLVAALYGQDDEVRILLAAGADVNAKDQWGLTPLHKAALQGHLEIVEVLLKAGADVNAKDERGHTPLHWAARFGHLEIVEVLLKAGADVNAQDQKGYTPADLAALWGHEDIAEVLQKAAGSPTPTPTTPTPTPTTPTPTPTGSDLGKKLLEAARAGQDDEVRELLKAGADVNAKDKDGYTPLHLAAREGHLEIVEVLLKAGADVNAKDKDGYTPLHLAAREGHLEIVEVLLKAGADVNAQDKSGKTPADLAADAGHEDIAEVLQKAA
notes: also called negative control construct #50
[11]
  binding result: no binding (tested: 50 nM highest concentration injected)
[12]
  Kd: 0.22 nM

— US20240190999A1 (Molecular Partners, published 2024)
